The values that follow come from publication PMC12946505, “RrMYB2 Regulates Drought Stress via RrJMJ12‐Dependent Epigenetic Modification in Rosa rugosa”.

For this series, the target named is RrJMJ12-C (Rosa rugosa, UniProt A0A2P6P5A5 1371-1493). Briefly: EMSA; unlabeled cold probe control; EMSA/Gel-Shift Kit (Beyotime) binding buffer, 30 min at 24 C; salt and pH not stated. The following applies: protein: recombinant; tags: GST (pGEX4T-1); label: biotin; blunt. A general note: In EMSA bound probe runs differently from free probe, usually more slowly.
RrJMJ12-C, sequence (A0A2P6P5A5 entry or part of it): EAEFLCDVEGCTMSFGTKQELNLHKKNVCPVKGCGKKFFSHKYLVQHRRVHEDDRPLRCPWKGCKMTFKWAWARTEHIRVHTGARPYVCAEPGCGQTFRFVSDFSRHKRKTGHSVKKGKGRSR

B1: Probe5 (dsDNA)
DNA 1: TAATTAGGTATCTCTGCTCGAGTTCTTTTG
DNA 2: CAAAAGAACTCGAGCAGAGATACCTAATTA
Take B1: the binding result is on record as “binds”.

B2: Probe2 (dsDNA)
DNA 1: TTTCTCATGAACCCTCTGCTTTCTCATCTTGGGT
DNA 2: ACCCAAGATGAGAAAGCAGAGGGTTCATGAGAAA
Take B2: the binding result is “binds”.

B3: Probe3 (dsDNA)
DNA 1: GTCTTATTTTTCTCTGTTTTCTTTTTTGGTATT
DNA 2: AATACCAAAAAAGAAAACAGAGAAAAATAAGAC
As to B3, the binding result is reported as “binds”.

B4: Probe4 (dsDNA)
DNA 1: ATGACCCCCTTTTGCTCTGCTCTGTCTTTCTAGT
DNA 2: ACTAGAAAGACAGAGCAGAGCAAAAGGGGGTCAT
As to B4, the binding result is “binds”.

B5: Probe1 (dsDNA)
DNA 1: CTCTCTCTCTCTCTCTCTCTGTTTGCGCCAAAACA
DNA 2: TGTTTTGGCGCAAACAGAGAGAGAGAGAGAGAGAG
For B5, the binding result was “binds”.
